# Assay results published in the supplement of paper PMC9732359.
# ± gives the uncertainty stated by the source.
# Test: protein stability index of a GFP-peptide fusion (yeast GPS) (PSI 1-4); higher = more stable; sorted into four equal gates, so the index is relative within each strain
# Procedure, shortened: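 Plasmids isolated from each sorting gate were PCR-amplified and Illumina-sequenced, and barcodes assigned the reads to strains. The gates, four of equal size, were set by GFP/Cherry fluorescence ratio on mid-log cultures in leucine-free medium. These cultures were yeast carrying a pooled library of tiled 17-residue yeast protein peptides fused downstream of GFP on a plasmid that also expresses Cherry. The protein stability index is the sum of every gate's read frequency times its gate number.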
Sequence,protein stability index (doa10∆),protein stability index (pdr5∆),protein stability index (san1∆),protein stability index (ubr1∆)
ILADEMGLGKTLQTISF [ISW2],3.09 ± 0.07,3.06 ± 0.066,2.91 ± 0.057,2.77 ± 0.061
ILDINVSSSKNKKSEEN [SWP82],3.36 ± 0.15,3.21 ± 0.083,3.27 ± 0.08,3.27 ± 0.079
ILDKIFYGVLDQGNGWL [RPN6],3.31 ± 0.096,2.65 ± 0.069,2.45 ± 0.059,3.11 ± 0.061
ILEVGALASIQTFNFDS [RPN12],2.31 ± 0.095,2.65 ± 0.18,2.96 ± 0.17,2.86 ± 0.077
ILGELKRVKSYMDKAKQ [LRP1],2.23 ± 0.079,2.35 ± 0.082,1.89 ± 0.12,2.36 ± 0.065
ILKDLIYRGVLNDENSD [SMC1],1.81 ± 0.059,2.18 ± 0.076,1.92 ± 0.13,2.21 ± 0.066
ILLRYHHNDISNDSQSH [YCG1],1.65 ± 0.15,1.28 ± 0.13,1.96 ± 0.2,1.51 ± 0.081
ILQQRSKINSTELLDYA [MED4],2.84 ± 0.086,2.61 ± 0.081,2.44 ± 0.054,2.97 ± 0.11
ILRKELSEEKEVIFTDV [MCD1],2.66 ± 0.15,3.02 ± 0.23,2.32 ± 0.12,2.73 ± 0.17
ILSLATEGCIGLSQTEA [MCD1],2.58 ± 0.056,2.49 ± 0.068,2.81 ± 0.09,2.4 ± 0.062
ILSQQFDKIIKIREDHI [SRB8],2.62 ± 0.066,3.05 ± 0.07,3.04 ± 0.052,2.84 ± 0.054
ILTPESQLKKTKAQQKT [RPL7B],2.86 ± 0.095,2.89 ± 0.11,2.91 ± 0.076,2.86 ± 0.048
ILTREVQNSTLAQLTSK [RPS1B],2.14 ± 0.069,2.71 ± 0.055,2.48 ± 0.075,2.45 ± 0.04
ILVDSLTGNQLPTPTPT [SWI1],2.73 ± 0.066,2.76 ± 0.073,2.93 ± 0.048,2.73 ± 0.045
IMATNRLDILDPALLRP [RPT6],2.92 ± 0.1,3.13 ± 0.092,2.81 ± 0.065,3.25 ± 0.057
IMDELLSSIAERVRNFA [DIB1],1.9 ± 0.065,2.27 ± 0.086,2.06 ± 0.084,2.17 ± 0.082
IMKIGGIKLQMQNSKVE [SMC4],2.11 ± 0.13,1.82 ± 0.1,2.25 ± 0.12,2.1 ± 0.12
IMKNKDFILSLLHHVSE [YJL039C/NUP192],2.41 ± 0.12,2.35 ± 0.099,1.92 ± 0.11,2.52 ± 0.065
IMNVLSEGFEPTFSTHA [PRP8],2.86 ± 0.096,2.94 ± 0.075,2.57 ± 0.07,2.67 ± 0.069
INGINWRFHTPQKYVLH [SIN4],2 ± 0.057,1.92 ± 0.052,1.83 ± 0.097,1.97 ± 0.042
INIQSFKDVEHISFNFS [BRR2],2.67 ± 0.081,2.79 ± 0.13,2.67 ± 0.092,2.75 ± 0.061
INKIVEILTNQQRGITY [YGR119C/NUP57],1.64 ± 0.073,1.99 ± 0.12,2.12 ± 0.13,2.09 ± 0.065
INKYESSPSHIELVVTE [RPL17A],2.08 ± 0.045,2.56 ± 0.051,2.05 ± 0.067,2.17 ± 0.036
INNNINIPQQQQMQPPN [GAL11],2.58 ± 0.07,2.87 ± 0.073,2.83 ± 0.049,2.84 ± 0.056
INQINEAHPTKVKNFGV [RPL20A],3.04 ± 0.074,2.93 ± 0.049,3.117 ± 0.031,2.85 ± 0.038
INTLNGGSSDTADKIRI [GAL11],2.34 ± 0.098,2.02 ± 0.088,1.27 ± 0.094,1.4 ± 0.066

Sequence,protein stability index (doa10∆),protein stability index (pdr5∆),protein stability index (san1∆),protein stability index (ubr1∆)
IPAAGNNRSVSMQTIAE [SRB5],3.09 ± 0.078,3.12 ± 0.087,3.22 ± 0.081,3.3 ± 0.07
IPAGIYWYWWKNGNEYN [QCR8],2.35 ± 0.076,1.69 ± 0.053,1.77 ± 0.13,2.04 ± 0.089
IPATIFDKVIYHLHPTF [TAF14],2.61 ± 0.066,2.8 ± 0.068,2.55 ± 0.062,2.78 ± 0.057
IPHDLNFLQESYEVEHV [TAF14],3.16 ± 0.096,3.33 ± 0.087,2.85 ± 0.07,3.12 ± 0.056
IPKQLLDDEKIFSQTTN [YJL039C/NUP192],2.55 ± 0.077,2.77 ± 0.051,2.69 ± 0.059,3.1 ± 0.052
IPMSKTIKDLVGGKSTV [FAS2],2.96 ± 0.11,2.8 ± 0.089,2.85 ± 0.072,3.04 ± 0.06
IPSSKIDDFTTRLWGSV [SNU114],2.93 ± 0.16,3.05 ± 0.14,3 ± 0.12,3.21 ± 0.12
IPSSYIKRTDEGGEAEF [ARP7],3.4 ± 0.16,3.14 ± 0.1,3.16 ± 0.11,3.45 ± 0.051
IPTNPVDNENNKPAIKE [SWI3],2.95 ± 0.074,3.1 ± 0.083,2.89 ± 0.11,3.21 ± 0.068
IPVKLLNEAQGHIVSLE [SMD3],3.14 ± 0.12,3.42 ± 0.16,2.77 ± 0.093,3.08 ± 0.11
IQELEDQRDELLEQKKS [ITC1],3.21 ± 0.067,3.11 ± 0.055,3.24 ± 0.045,3.31 ± 0.061
IQIMANIDQEGSKQADR [PGD1],3.2 ± 0.052,3.11 ± 0.064,3.08 ± 0.054,3.08 ± 0.04
IQKEEEPENNTVIEGVK [SWI3],3.3 ± 0.073,3.06 ± 0.072,3.28 ± 0.048,3.25 ± 0.053
IQNQSPQFNSPYDSNNS [SWI1],2.97 ± 0.057,3 ± 0.053,2.74 ± 0.052,2.82 ± 0.046
IQRETLLPTNNGQPLNQ [GRR1],2.53 ± 0.072,2.91 ± 0.071,2.64 ± 0.06,2.65 ± 0.057
IRCHREDCDLVIMALML [POP5],2.45 ± 0.053,2.65 ± 0.064,2.01 ± 0.091,2.81 ± 0.047
IRDNKLVSEKIINSTAL [RPC82],3.24 ± 0.2,3.24 ± 0.12,2.99 ± 0.19,3.14 ± 0.11
IRDSGDRIDLRYSKRAG [RPO21],3.43 ± 0.18,3.34 ± 0.23,3.25 ± 0.12,3.27 ± 0.19
IREKVAKQALDLYHFAL [SNF2],2.52 ± 0.092,2.64 ± 0.098,2.62 ± 0.094,2.54 ± 0.056
IRGNLMGKRVDFSARTV [RPO21],,2.76 ± 0.24,,2.5 ± 0.26
IRINDEPILGQITLTFI [YML103C/NUP188],2.21 ± 0.067,2.64 ± 0.05,1.57 ± 0.073,2.25 ± 0.048
IRQYALATAHIYLSRFL [SSN8],1.38 ± 0.034,1.34 ± 0.036,1.26 ± 0.12,1.11 ± 0.04
IRRLRVLRRLLAKYRDA [RPL19A],1.19 ± 0.067,1.41 ± 0.058,1.34 ± 0.17,1.25 ± 0.057
IRRTFNIVNDFTPEEEA [SKP1],2.71 ± 0.099,3.28 ± 0.05,3.16 ± 0.05,3.08 ± 0.041
IRSVALNDSNVKSFKPH [RRP42],2.63 ± 0.083,3.23 ± 0.17,2.62 ± 0.23,2.98 ± 0.13
ISAKDMGQGLCNNINKG [BRR2],3.13 ± 0.14,3.25 ± 0.22,3.12 ± 0.12,3.26 ± 0.24
